For the data set, the target named is Pst_A23 (Puccinia striiformis f. sp. tritici, UniProt A0A0L0VHF6 =M+36-181, internal_change). In words: EMSA. In general terms: Mobility shift assays separate free from complexed probe on a gel.

In the case of GAAGAAGAAGAGAAGACCUGAAGA (ssRNA) [M1-RNA], the binding result is “binds”.

For the molecule AACUUCUUCUUUACUUCCUUUCCU (ssRNA) [M2-RNA], the binding result is listed as “binds”.

Regarding AGGAGGCAAGGACCCACCUAGGCA (ssRNA) [M1-m-RNA], the binding result was “no binding”.

For the molecule UUUCCCUAAAGUUUCUUACAAUGAUCUGGUUGAAGCAACAAAG (ssRNA) [TaXa21-RNA], the binding result was “binds”.

As for ACUUCUUCUUGUUGUUGCUCCUGCUGC (ssRNA) [TaWRKY53-RNA], the binding result is given as “binds”.

For the origin of these results see PMC9129083.
